Experimental data published in the domain aggregation screens of Martell et al. (2025).

Assay: soluble fraction after stress (log2 fold change); higher = more stays soluble; pooled small domains, quantitative proteomics
Details: stress: pH 4
Procedure, shortened: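 Small protein domains from pooled custom libraries were exposed to pH 4, then quantified with high-throughput quantitative proteomics. The fold change in how much of each domain remains soluble is read as aggregation propensity. It is given as log2, with higher values meaning more stayed soluble.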

| Sequence | soluble fraction (log2) |
| --- | --- |
| HMIKIEDYTNKDYNKVEASLEVKGLVVNIEYKAVDDKAKYKGKEDLIIDQSVKKDATLVKGDTIILYLPK | 0.0435 |
| HMLSDEEKMAALNEQARQRGFTISPGVLPYLITHYQRDMHSLSMILDALDRYSLQTKRTITLPLLHDLLQQ | -0.228 |
| HMGGEHPIPEDWAVNEANYEHGAKFYGYTRAHVDAEAQAFRDQYAANGKKYVDWDAHFRTFMRWQNERRYG | -0.416 |
| HMDTVSYSTLLRDIDAKEIKQLDLVPGRREVRVQYNDGRRVTVPVFANDNQILRAAESSGTPLTVV | 0.0175 |
| HMRLPLYLALAQTLRQEIDAKQYKIGAHLPPEDQLVVKYGVSRHTVRQALQELKNEGLITSKAGIGTIVSS | 0.154 |
| HMKKAENEKLNIPYDVTEFLASSIKDDIRMMEGAMVKLLALSSLTKQDITQSLAKRVIQDVLGSSA | -0.451 |
| HMHDYYDSIDAVTHDKSYESNLVFALKLGYTETQLQKALLKLGKKAREDQILEELIRIQKSSKA | ≥ 0.43 |
| HMAPKSALKIIEQISNNPRATMTDLANLTGYSRRWVAQTIKRLQEENIIKRIGSDKSGYWEIIG | 0.417 |
| HMSGHIPGIKIKGVIFFDKGSSSNHIIATTENNSNLKLRVGETVQGAVLKSIHPNHVIFFHHNQLIEVGIG | 0.0374 |
| HMGQVAKPPLKELGADPVTGKPMVLKDGRFGPYVTDGEYNASLRKDDDIETIGVERAAELLQIRREKGP | -0.0291 |
| HMSWNIHEAVEYYKGQDAPQNQFALVELLKEVQEHNGGVLTDIAVEEIAALLNTKVTFLNAVIKRYPSLK | -0.163 |
| HMPLTEMAVRKHLSAELAQKGYTIDPRALEILLQRTNTNLTAIANELPKLLLVAEDKQITVNEVSAM | -0.1 |
| HMDGIDALEPLMRRVFEALPQRRSMTIERAAVAAGLDEESVKIALVRLQLEGYVANDERGWHRSKSPH | -0.000736 |
| HMENISVESKMKLLLKSLKTRDFISLPELVLKGESKLAISVILVAALELNRKGYIEVVQAEQFGEIYFKNT | 0.0399 |
| HMTHEIKIKSHSLFASEGTKYQWYLNNIKINDATSQELEITSPGIYKLEMTNFDGDVIEKQIIVGLTNS | -1.52 |
| HMFKINNIIVSGLSEKSNLQTSEEIKNILFENIFFIKKDVLFKILEKNNLINSFEIKKIYPDTIEVKIKKT | -0.104 |
| HMQMEYEKAIAYILDKIKSGELSIGSKLPAERVIADTLHIGRNSTREALSILHGMGMVDRVHGSGNYISEH | -0.111 |
| HMEYELYALKEEVLKRLTREDRELLILLFEERRTIHAVAQRLGLSDSAVYKRRTQLVNKVKVIASMLM | -0.592 |

| Sequence | soluble fraction (log2) |
| --- | --- |
| HMSDKLTLPVQINGVFRYTIEINPSMQKDEIIDLVKNEERTAKYKQDKEIKNVIVVPGKIVNIII | 0.22 |
| HMAKSPYDVLGLKEDAPFDEVKKRYRELVKKYHPDILMGRGESEEMIEKSTRKLQEINEAYETIKQRA | -0.0402 |
| HMGMTRPLFVTDPGLVRIGLVSPIFEKLGSGKLSPQLFDQVKEDPPEQTVFDGVEFARETGIDGVIGFG | 0.0343 |
| HMSNYIVELSSSEKIDDIDNNNNLINSFFSKSDSQWEYKLVFKNKNEMDVFVKKISTNNKIISYKTSS | -0.106 |
| HMIVSVPNVRGMGESKAAAALQNRGLLVSIDYESSTSASQGEVIRQSISPGTEVTKGSSITIIIAVSPN | -0.0228 |
| HMSTRLIGEIGVVTKDLGAGLKENGSIQIGREEWPAETKDMEHIPMGTRVKVIHIEGTRLVVEA | -0.266 |
| HMLILDTDGRYVIKRGDSLSEILEKIANGSNINLNLLKRAFVTANPKAFKRANPNWMYANAR | -0.145 |
| HMEIPMRDKLKTYIDYLFAGAPQTAATAETKAEILQNTLDKYDDLIAEGKTPEAAYSLAVSGIGDLGDF | -0.339 |
| HMGKKYVPGMAVKLSAVPLYAASTSKVPSTHVTGTYYLWDDEVVRGRLRITNLKSRVGISGQVTGWIDKDR | 0.0244 |
| HMEPLVSKVFQVSYQKTADLVALIKSEDSKLLSARGTLISDERTSQIFVQDTPTRLERISMIVNGL | -0.895 |
| HMQGDHELSQRILSYLSEQGGSSPLTDKASPEEIYRIFRVSKKKYKQALGNLYKSKSIIILADKIQLL | 0.195 |
| HMRTTTGSEGMIGSIGKAKTDLAPDGKIFIHGELWDATSSSPVSAGQKIEVTQIEGLKLHVKPVL | 0.12 |
| HMALQDKYAELLTAANTMGVTNLAVAEKDGTLHVSGTAKSTADYDSLWALYDKIDPNMASGDLMMNI | -0.0324 |
| HMRESRLFQILYQLLTKKKVTAANLAKQFEVSVRTIYRDIDALSSSGIPIYASQGKNGGIQLDEDF | -0.999 |
| HMRTIPDALIGRPYESVETAIVLEGLQAKRTEVFHPTIRPGTVIRLEPTSGSELLRDGVVEIFVSQGPETT | -1.47 |
| HMPKMDGLTVMEQVNQDHFVNKRPYFIVITAVGQEKITEDAFNKGANYYVMKPFNNNMLLERIKSVRK | 0.0916 |
| HMEQVPEAVGRRVRQARSDRGWTLDQLAERSEVSRRMIVNVEAGTSNASIATLLRLATALNVGLAELVA | -0.685 |
